From patent publication US20130122545A1

T1: Suc(OMe)-AAPV-MCA
T1 chain: AAPV

T2: Glt-AAF-MCA
T2 chain: AAF

T3: Boc-FSR-MCA
T3 chain: FSR

T4: Suc-LLVY-MCA
T4 chain: LLVY

T5: Z-LLE-MCA
T5 chain: LLE


How the values were obtained:
[1] = biological target: Aspergillus niger 19 kDa protease (Aspergillus niger); test: cell-based or functional assay
Suc(OMe)-AAPV-MCA = biological target: T1, Suc(OMe)-AAPV-MCA
Glt-AAF-MCA = biological target: T2, Glt-AAF-MCA
Boc-FSR-MCA = biological target: T3, Boc-FSR-MCA
Suc-LLVY-MCA = biological target: T4, Suc-LLVY-MCA
Z-LLE-MCA = biological target: T5, Z-LLE-MCA

residual activity (%) [1] [%]	Molecule	substrate specificity: increase of fluorescent strength, relative (column has no head) (Suc(OMe)-AAPV-MCA) [%]	substrate specificity: increase of fluorescent strength, relative (column has no head) (Glt-AAF-MCA) [%]	substrate specificity: increase of fluorescent strength, relative (column has no head) (Boc-FSR-MCA) [%]	substrate specificity: increase of fluorescent strength, relative (column has no head) (Suc-LLVY-MCA) [%]	substrate specificity: increase of fluorescent strength, relative (column has no head) (Z-LLE-MCA) [%]
91	pepstatin A (peptide)	–	–	–	–	–
89	leupeptin (peptide)	–	–	–	–	–
–	Aspergillus niger 19 kDa protease (protein) SPIPSYSRPGRGQHFQDAYGFAEACIAGDRMEIAGQTGMSPTSTEVPPTLEEEVAQAFNNINEVILYTLEKAKPDLRASVKSGWDRVVKIRTYHVQLPQTREKIIGLMVENVKKWCPDHQPTWTMLGIEALPFEGQNLEIEVDVFLG	0.2	1.6	0.3	100.0	0.1
